Source: PMC6048534

Columns and labels:
[1] = biological target: CofB (minor pilin of CFA/III without its N-terminal 28 residues; homotrimer) (enterotoxigenic Escherichia coli (ETEC)); assay: ITC
[2] = biological target: CofB (minor pilin of CFA/III without its N-terminal 28 residues; homotrimer) (enterotoxigenic Escherichia coli (ETEC)); assay: AUC

For “CofJ (1–24) peptide (synthesized peptide consisting of CofJ residues 1–24)”, the Kd [1] was 8.8 µM.

Substance “CofB (minor pilin of CFA/III without its N-terminal 28 residues; homotrimer) (domain or fragment)” has a stoichiometry N [2] of 3.

“CofJ (intact recombinant secreted protein of the CFA/III operon) (natural protein)” showed a Kd [1] of 0.14 µM and a stoichiometry N (CofJ per three CofB molecules) [2] of 1.

Substance “CofJ (4–16) peptide (synthetic 13-residue peptide comprising CofJ residues 4–16)” has a Kd [1] of 4.8 µM.
